Test in all cases: SPR
The target in series [1] is T1, integrin α5β1 (soluble, SPR) (Homo sapiens, UniProt P08648;P05556 42-995;21-728).
For a further series, the target named is integrin αvβ3 (Homo sapiens, UniProt P06756;P05106 31-992;27-718).
The target in series [2] is T1, integrin α5β1 (soluble, SPR). This is another data set of the same source.

T1 sequence (P08648 42-995, chain 1 of 2): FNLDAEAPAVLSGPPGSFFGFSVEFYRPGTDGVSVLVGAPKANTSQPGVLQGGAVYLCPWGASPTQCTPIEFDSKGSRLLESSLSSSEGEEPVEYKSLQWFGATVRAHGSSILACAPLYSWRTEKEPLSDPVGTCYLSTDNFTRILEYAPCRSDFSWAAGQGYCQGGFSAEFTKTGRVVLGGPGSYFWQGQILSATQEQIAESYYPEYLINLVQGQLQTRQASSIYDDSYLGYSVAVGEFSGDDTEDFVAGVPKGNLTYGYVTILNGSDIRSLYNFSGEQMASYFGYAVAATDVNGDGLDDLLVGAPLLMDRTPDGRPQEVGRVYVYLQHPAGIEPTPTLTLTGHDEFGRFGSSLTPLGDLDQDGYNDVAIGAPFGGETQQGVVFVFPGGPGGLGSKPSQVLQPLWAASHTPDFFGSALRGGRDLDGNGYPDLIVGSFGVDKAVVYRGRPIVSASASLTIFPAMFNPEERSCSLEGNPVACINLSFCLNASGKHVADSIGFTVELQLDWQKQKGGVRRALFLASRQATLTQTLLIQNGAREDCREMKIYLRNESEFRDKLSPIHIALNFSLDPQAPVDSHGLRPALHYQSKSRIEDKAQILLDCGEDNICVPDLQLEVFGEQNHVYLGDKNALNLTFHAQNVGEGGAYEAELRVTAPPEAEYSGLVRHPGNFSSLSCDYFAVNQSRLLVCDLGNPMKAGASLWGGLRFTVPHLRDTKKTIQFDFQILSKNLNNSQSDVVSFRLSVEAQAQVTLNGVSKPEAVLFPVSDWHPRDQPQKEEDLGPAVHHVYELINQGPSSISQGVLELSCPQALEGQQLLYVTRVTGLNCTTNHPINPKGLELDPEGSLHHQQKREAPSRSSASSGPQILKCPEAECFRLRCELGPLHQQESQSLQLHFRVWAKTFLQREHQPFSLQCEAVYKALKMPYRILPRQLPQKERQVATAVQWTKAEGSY
T1 sequence (P05556 21-728, chain 2 of 2): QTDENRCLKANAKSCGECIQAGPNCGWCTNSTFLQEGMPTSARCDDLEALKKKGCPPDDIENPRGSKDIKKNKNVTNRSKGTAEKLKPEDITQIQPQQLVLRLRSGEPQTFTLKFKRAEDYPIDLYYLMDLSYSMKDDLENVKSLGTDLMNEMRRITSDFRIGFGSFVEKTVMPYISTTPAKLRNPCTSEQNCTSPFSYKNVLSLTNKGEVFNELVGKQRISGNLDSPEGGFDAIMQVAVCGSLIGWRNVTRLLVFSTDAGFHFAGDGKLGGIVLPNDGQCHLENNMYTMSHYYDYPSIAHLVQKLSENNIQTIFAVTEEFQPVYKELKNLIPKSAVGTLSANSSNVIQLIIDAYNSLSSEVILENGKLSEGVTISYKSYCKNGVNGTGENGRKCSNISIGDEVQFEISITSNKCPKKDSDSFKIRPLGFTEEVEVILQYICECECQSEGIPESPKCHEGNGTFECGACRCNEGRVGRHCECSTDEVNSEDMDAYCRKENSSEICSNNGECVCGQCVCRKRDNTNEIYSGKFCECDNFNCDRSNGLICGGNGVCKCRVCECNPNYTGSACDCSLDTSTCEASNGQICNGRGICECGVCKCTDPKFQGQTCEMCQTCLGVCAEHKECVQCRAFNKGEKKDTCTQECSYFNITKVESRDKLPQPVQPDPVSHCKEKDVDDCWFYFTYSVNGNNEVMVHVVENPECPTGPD
integrin αvβ3, sequence (P06756 31-992, chain 1 of 2): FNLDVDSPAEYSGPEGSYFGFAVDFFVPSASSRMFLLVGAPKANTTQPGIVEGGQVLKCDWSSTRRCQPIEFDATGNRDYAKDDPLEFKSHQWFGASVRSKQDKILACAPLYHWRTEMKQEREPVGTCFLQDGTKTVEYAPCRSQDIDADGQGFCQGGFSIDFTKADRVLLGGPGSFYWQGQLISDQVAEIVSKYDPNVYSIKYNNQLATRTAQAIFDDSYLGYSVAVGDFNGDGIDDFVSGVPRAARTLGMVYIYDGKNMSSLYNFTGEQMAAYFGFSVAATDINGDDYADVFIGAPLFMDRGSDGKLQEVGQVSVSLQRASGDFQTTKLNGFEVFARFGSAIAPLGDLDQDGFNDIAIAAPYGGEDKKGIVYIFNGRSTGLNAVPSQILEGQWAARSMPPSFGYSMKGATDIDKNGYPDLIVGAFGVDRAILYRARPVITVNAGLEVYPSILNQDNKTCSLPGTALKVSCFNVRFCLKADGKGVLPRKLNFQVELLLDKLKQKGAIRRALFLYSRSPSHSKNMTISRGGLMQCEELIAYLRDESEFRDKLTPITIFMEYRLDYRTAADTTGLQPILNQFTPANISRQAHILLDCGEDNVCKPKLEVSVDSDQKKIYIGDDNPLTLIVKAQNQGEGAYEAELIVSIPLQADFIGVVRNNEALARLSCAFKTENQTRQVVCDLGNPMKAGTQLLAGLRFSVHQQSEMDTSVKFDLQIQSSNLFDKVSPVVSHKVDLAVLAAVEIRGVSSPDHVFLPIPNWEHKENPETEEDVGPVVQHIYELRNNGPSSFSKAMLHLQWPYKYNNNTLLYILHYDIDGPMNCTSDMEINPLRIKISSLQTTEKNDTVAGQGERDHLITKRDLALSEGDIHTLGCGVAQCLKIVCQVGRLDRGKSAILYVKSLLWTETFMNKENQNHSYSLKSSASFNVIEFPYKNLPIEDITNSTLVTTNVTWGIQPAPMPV
integrin αvβ3, sequence (P05106 27-718, chain 2 of 2): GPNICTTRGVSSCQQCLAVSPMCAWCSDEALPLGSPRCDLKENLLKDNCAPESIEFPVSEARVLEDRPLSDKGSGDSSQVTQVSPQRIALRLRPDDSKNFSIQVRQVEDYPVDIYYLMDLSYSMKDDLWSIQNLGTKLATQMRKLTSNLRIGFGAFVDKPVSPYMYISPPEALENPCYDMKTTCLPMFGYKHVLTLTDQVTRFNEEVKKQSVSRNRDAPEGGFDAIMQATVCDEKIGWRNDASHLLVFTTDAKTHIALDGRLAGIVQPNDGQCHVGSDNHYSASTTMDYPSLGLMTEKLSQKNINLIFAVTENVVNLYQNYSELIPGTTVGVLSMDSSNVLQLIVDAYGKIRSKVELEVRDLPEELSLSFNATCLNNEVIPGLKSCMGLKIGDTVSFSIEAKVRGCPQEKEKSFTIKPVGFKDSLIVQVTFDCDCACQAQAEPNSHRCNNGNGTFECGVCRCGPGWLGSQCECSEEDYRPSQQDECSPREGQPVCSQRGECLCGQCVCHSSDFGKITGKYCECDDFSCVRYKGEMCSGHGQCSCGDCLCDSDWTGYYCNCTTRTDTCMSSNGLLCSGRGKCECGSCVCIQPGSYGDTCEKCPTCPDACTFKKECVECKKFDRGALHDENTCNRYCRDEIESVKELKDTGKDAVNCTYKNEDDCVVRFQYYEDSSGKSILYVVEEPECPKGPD

B1: aptamer B03 (biotinylated, SPR) (structured_RNA)
RNA: GGUUACCAGCCUUCACUGCGCCCAGUCACUGCACGAAUCAGUGAUGGCCGCACCACGGUCGGUCACAC
modifications: 2'-fluoro pyrimidines? (not stated for B03)
Take B1: in series [1], the binding result is given as “no binding”.

B2: aptamer H02-2'F (XNA)
RNA: GGUUACCAGCCUUCACUGCGGACGGACAGAGAGUGCAACCUGCCGUGCCGCACCACGGUCGGUCACAC
modifications: 2'-fluoro pyrimidines
As to B2, the binding result in the series with integrin αvβ3 was “no binding”. The molecule further registered a dissociation constant Kd in series [2] of 72 ± 11 nM.

The values are drawn from PMC6586995.
